Test results from article PMC8980529, “Complement Factor H-Related Proteins FHR1 and FHR5 Interact With Extracellular Matrix Ligands, Reduce Factor H Regulatory Activity and Enhance Complement Activation” (Frontiers in Immunology, 2022).

B1: Recombinant human factor H-related protein 5 (natural protein, UniProt Q9BXR6 19-569, looked up)
chain: EGTLCDFPKIHHGFLYDEEDYNPFSQVPTGEVFYYSCEYNFVSPSKSFWTRITCTEEGWSPTPKCLRMCSFPFVKNGHSESSGLIHLEGDTVQIICNTGYSLQNNEKNISCVERGWSTPPICSFTKGECHVPILEANVDAQPKKESYKVGDVLKFSCRKNLIRVGSDSVQCYQFGWSPNFPTCKGQVRSCGPPPQLSNGEVKEIRKEEYGHNEVVEYDCNPNFIINGPKKIQCVDGEWTTLPTCVEQVKTCGYIPELEYGYVQPSVPPYQHGVSVEVNCRNEYAMIGNNMITCINGIWTELPMCVATHQLKRCKIAGVNIKTLLKLSGKEFNHNSRIRYRCSDIFRYRHSVCINGKWNPEVDCTEKREQFCPPPPQIPNAQNMTTTVNYQDGEKVAVLCKENYLLPEAKEIVCKDGRWQSLPRCVESTAYCGPPPSINNGDTTSFPLSVYPPGSTVTYRCQSFYKLQGSVTVTCRNKQWSEPPRCLDPCVVSEENMNKNNIQLKWRNDGKLYAKTGDAVEFQCKFPHKAMISSPPFRAICQEGKFEYPICE
notes: complement factor H-related protein 5 (FHR5), human, recombinant; called 'full-length FHR5' in the discussion; Commercial recombinant protein; The discussion speaks of 'the dimerized full-length protein'; also called FHR5; full-length FHR5; source: bought: Novoprotein via Gentaur (recombinant)
B2: Recombinant human factor H-related protein 1 (natural protein, UniProt Q03591 19-330, looked up)
chain: EATFCDFPKINHGILYDEEKYKPFSQVPTGEVFYYSCEYNFVSPSKSFWTRITCTEEGWSPTPKCLRLCFFPFVENGHSESSGQTHLEGDTVQIICNTGYRLQNNENNISCVERGWSTPPKCRSTDTSCVNPPTVQNAHILSRQMSKYPSGERVRYECRSPYEMFGDEEVMCLNGNWTEPPQCKDSTGKCGPPPPIDNGDITSFPLSVYAPASSVEYQCQNLYQLEGNKRITCRNGQWSEPPKCLHPCVISREIMENYNIALRWTAKQKLYLRTGESAEFVCKRGYRLSSRSHTLRTTCWDGKLEYPTCAKR
notes: complement factor H-related protein 1 (FHR1), human, recombinant; Commercial recombinant protein; also called FHR1; source: bought: Novoprotein via Gentaur (recombinant)
B3: Human vitronectin (natural protein, UniProt P04004 20-478, looked up)
chain: DQESCKGRCTEGFNVDKKCQCDELCSYYQSCCTDYTAECKPQVTRGDVFTMPEDEYTVYDDGEEKNNATVHEQVGGPSLTSDLQAQSKGNPEQTPVLKPEEEAPAPEVGASKPEGIDSRPETLHPGRPQPPAEEELCSGKPFDAFTDLKNGSLFAFRGQYCYELDEKAVRPGYPKLIRDVWGIEGPIDAAFTRINCQGKTYLFKGSQYWRFEDGVLDPDYPRNISDGFDGIPDNVDAALALPAHSYSGRERVYFFKGKQYWEYQFQHQPSQEECEGSSLSAVFEHFAMMQRDSWEDIFELLFWGRTSAGTRQPQFISRDWHGVPGQVDAAMAGRIYISGMAPRPSLAKKQRFRHRNRKGYRSQRGHSRGRNQNSRRPSRATWLSLFSSEESNLGANNYDDYRMDWLVPATCEPIQSVFFFSGDKYYRVNLRTRRVDTVDPPYPRSIAQYWLGCPAPGHL
notes: vitronectin, human; source: bought: Sigma-Aldrich

Legend:
Details in all cases: both partners purified
[1] = target: T1, C3(H2O) (human, UniProt P01024 23-667; P01024 672-1663); assay: ELISA; 10 µg/ml FHR5, CCPs 1-4, CCPs 3-7, CCPs 8-9 and alpha-1-antitrypsin immobilised, incubated with 5 µg/ml C3, C3(H2O) and C3b; detected with anti-human C3
T1 construct: complement C3 beta chain, human; complement C3 alpha chain, human; Same chains as C3; source: generated from purified human C3 (Merck) with ten freeze/thaw cycles
T1 sequence (P01024 23-667, chain 1 of 2): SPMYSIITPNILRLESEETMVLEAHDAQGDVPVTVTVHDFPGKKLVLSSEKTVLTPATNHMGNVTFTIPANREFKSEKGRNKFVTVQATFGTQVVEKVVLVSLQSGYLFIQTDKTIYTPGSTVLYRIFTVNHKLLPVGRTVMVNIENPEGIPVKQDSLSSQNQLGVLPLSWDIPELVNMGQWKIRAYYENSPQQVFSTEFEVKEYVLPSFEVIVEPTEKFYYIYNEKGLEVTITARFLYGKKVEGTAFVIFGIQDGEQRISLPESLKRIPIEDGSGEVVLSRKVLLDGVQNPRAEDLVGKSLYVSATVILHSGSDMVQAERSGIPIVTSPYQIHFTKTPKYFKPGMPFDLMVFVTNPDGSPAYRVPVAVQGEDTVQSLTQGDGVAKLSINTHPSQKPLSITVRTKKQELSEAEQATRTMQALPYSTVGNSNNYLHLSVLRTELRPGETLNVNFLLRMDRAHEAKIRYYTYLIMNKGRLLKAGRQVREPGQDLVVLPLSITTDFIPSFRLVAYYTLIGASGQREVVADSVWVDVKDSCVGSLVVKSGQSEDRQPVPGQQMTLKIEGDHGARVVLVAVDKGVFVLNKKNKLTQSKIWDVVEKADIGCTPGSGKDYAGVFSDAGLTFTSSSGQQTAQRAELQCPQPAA
T1 sequence (P01024 672-1663, chain 2 of 2): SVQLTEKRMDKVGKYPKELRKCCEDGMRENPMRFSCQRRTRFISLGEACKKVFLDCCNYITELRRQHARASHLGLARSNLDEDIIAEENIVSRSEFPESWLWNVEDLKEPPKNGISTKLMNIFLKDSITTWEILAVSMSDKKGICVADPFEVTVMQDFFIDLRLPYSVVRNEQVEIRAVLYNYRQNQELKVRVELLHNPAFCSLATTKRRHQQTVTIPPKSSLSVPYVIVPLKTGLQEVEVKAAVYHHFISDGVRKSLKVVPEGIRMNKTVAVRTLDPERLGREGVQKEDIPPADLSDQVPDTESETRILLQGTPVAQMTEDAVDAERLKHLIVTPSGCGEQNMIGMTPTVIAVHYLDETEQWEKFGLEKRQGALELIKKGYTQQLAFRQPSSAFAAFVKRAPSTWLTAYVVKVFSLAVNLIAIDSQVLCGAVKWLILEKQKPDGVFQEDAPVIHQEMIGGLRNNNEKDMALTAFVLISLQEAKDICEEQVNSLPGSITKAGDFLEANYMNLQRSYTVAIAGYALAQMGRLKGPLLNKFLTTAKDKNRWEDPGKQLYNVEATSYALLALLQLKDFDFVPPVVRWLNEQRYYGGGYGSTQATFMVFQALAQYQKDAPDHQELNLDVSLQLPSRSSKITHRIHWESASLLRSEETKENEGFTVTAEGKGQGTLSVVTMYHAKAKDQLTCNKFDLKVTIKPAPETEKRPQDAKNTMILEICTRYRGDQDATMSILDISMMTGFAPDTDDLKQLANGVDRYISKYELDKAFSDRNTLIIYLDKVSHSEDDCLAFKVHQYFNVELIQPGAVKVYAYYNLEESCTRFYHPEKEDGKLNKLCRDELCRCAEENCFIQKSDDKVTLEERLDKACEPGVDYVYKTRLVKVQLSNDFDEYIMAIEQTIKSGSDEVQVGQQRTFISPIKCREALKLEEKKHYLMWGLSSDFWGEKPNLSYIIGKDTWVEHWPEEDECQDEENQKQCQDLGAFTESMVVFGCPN

[2] = target: T2, Purified human C3b (human, UniProt P01024 23-667; P01024 749-1663); assay: ELISA; FHR5, CCPs 1-4, CCPs 3-7, CCPs 8-9 and HSA immobilised at 5 µg/ml, blocked with 4% BSA; 20 µg/ml C3b, iC3b, C3c or 10 µg/ml C3d added; detected with anti-human C3 or anti-human C3d
T2 construct: complement C3 beta chain, human; complement C3b alpha' chain, human; also called soluble C3b; fluid-phase C3b; source: bought: Merck (purified human)
T2 sequence (P01024 23-667, chain 1 of 2): as the sequence (P01024 23-667, chain 1 of 2) above
T2 sequence (P01024 749-1663, chain 2 of 2): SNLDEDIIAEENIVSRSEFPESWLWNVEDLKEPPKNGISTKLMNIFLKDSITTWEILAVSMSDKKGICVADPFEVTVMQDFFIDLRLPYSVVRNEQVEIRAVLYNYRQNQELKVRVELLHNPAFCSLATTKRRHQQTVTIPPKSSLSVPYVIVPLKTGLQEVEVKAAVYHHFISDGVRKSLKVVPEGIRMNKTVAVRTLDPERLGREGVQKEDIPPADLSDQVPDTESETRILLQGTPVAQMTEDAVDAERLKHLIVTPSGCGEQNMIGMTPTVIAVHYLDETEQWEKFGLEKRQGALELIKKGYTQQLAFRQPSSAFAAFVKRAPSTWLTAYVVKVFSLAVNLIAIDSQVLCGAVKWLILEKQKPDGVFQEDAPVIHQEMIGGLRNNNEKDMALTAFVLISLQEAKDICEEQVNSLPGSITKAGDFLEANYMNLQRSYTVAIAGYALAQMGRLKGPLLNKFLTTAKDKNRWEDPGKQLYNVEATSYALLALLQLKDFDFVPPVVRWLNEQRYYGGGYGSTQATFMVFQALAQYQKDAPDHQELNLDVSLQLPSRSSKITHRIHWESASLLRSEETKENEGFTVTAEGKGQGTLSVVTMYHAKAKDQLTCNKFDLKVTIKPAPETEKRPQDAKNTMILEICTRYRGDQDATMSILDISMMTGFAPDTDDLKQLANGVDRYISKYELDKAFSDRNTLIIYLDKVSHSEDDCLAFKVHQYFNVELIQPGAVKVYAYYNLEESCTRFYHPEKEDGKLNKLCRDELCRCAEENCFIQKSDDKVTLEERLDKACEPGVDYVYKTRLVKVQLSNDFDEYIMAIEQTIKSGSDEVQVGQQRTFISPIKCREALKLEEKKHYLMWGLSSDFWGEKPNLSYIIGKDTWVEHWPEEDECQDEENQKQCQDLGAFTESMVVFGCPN

[3] = target: B3; assay: peptide or protein array; ECM proteins (0.5 mg/ml) printed on nitrocellulose-covered slides in triplicates, blocked with 4% BSA; incubated with FHR1 (5, 25, 50 µg/ml) or FHR5 (0.5, 5, 20 µg/ml); detected with goat anti-human FH or anti-FHR5 and Alexa-647 anti-goat IgG; signal above gelatin taken as binding
[4] = target: T3, Purified human factor H (human, UniProt P08603 19-1231); assay: peptide or protein array; competition: printed ECM proteins incubated with 25 µg/ml FH with or without FHR1 (5, 25, 50 µg/ml) or FHR5 (0.5, 5, 20 µg/ml); bound FH detected with mAb A254 that does not cross-react with FHR1 and FHR5
T3 construct: complement factor H, human, 155-kDa serum glycoprotein, 20 CCP domains; also called FH; source: bought: Merck (purified human)

[5] = target: B1; assay: peptide or protein array; ECM proteins (0.5 mg/ml) printed on nitrocellulose-covered slides in triplicates, blocked with 4% BSA; incubated with FHR1 (5, 25, 50 µg/ml) or FHR5 (0.5, 5, 20 µg/ml); detected with goat anti-human FH or anti-FHR5 and Alexa-647 anti-goat IgG; signal above gelatin taken as binding

Binder: B1
binding result [1]: binds | binding result [2]: binds

Binder: B2
binding result [3]: binds

Binder: B3
binding result [4]: binds | binding result [5]: binds
